± gives the uncertainty stated by the source.
Test: self-splicing fitness, log relative to wild type (ln ratio); higher = more splicing; Tetrahymena group I intron in knt gene, E. coli kanamycin selection, DiMSum; sequences stand for … in CUCUCU…GGAGGGAAAAGUUAUCAGGCAUGCACCUGGUAGCUAGUCUUUAAACCAAUAGAUUGCAUCGGUUUAAAAGGCAAGACCGUCAAAUUGCGGGAAAGGGGUCAACAGCCGUUCAGUACCAAGUCUCAGGGGAAACUUUGAGAUGGCCUUGCAAAGGGUAUGGUAAUAAGCUGACGGACAUGGUCCUAACCACGCAGCCAAGUCCUAAGUCAACAGAUCUUCUGUUGAUAUGGAUGCAGUUCACAGACUAAAUGUCGGUCGGGGAAGAUGUAUUCUUCUCAUAAGAUAUAGUCGGACCUCUCCUUAAUGGGAGCUAGCGGAUGAAGUGAUGCAACACUGGAGCCGCUGGGAACUAAUUUGUAUGCGAAAGUAUAUUGAUUAGUUUUGGAGUACUCGUGGUCG
In short: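 Fitness was computed with DiMSum as the error-weighted combination of replicate fold changes, kanamycin versus none, each normalised to wild type. The library randomised all eight intron nucleotides of the P1ex region, with the intron placed in the knt kanamycin-resistance gene on pET-22b(+) in E. coli BL21(DE3). Six replicate transformations were grown overnight at 37°C or 30°C on LB agar with or without 25 μg/mL kanamycin, plus 100 μg/mL carbenicillin, 50 μM IPTG and 0.2% rhamnose. Pooled colonies were amplicon-sequenced on an Illumina HiSeq 2500.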

| Sequence | self-splicing fitness (ln) (30 °C) | self-splicing fitness (ln) (37 °C) |
| --- | --- | --- |
| UUCUAGCAAUAUUACGUCAA | -1.21 ± 0.13 | -1.43 ± 0.16 |
| CCAGAGCAAUAUUACGUAGC | -3.23 ± 0.19 | -2.38 ± 0.26 |
| GCGAAGCAAUAUUACGUUCC | -2.43 ± 0.37 | -2.29 ± 0.44 |
| GAUCAGCAAUAUUACGCAGC | -1.64 ± 0.11 | -0.448 ± 0.13 |
| ACGGAGCAAUAUUACGACGA | -1.49 ± 0.1 | -0.442 ± 0.13 |
| UCCCAGCAAUAUUACGCGAA | -2.11 ± 0.16 | -1.07 ± 0.14 |
| AUACAGCAAUAUUACGAGCC | -2.64 ± 0.27 | – |
| GAUGAGCAAUAUUACGAUCA | -2.17 ± 0.24 | -1.31 ± 0.21 |
| CGGCAGCAAUAUUACGGACC | -2.09 ± 0.26 | -1.26 ± 0.2 |
| UAAUAGCAAUAUUACGCCCU | -1.59 ± 0.4 | -0.36 ± 0.38 |
| AGCCAGCAAUAUUACGUCGU | -1.75 ± 0.072 | -1.58 ± 0.086 |
| ACGUAGCAAUAUUACGCGAA | -1.46 ± 0.16 | -0.935 ± 0.18 |
| AUACAGCAAUAUUACGUAAG | -0.561 ± 0.05 | -0.0861 ± 0.068 |
| UAAGAGCAAUAUUACGGGCC | -2.08 ± 0.32 | -0.897 ± 0.3 |
| CAACAGCAAUAUUACGAGAG | -3.41 ± 0.13 | -1.91 ± 0.11 |
| GUAAAGCAAUAUUACGCUAA | -1.65 ± 0.087 | -0.135 ± 0.11 |
| UUUCAGCAAUAUUACGCGAA | -2.03 ± 0.14 | -1.21 ± 0.14 |

| Sequence | self-splicing fitness (ln) (30 °C) | self-splicing fitness (ln) (37 °C) |
| --- | --- | --- |
| CUAGAGCAAUAUUACGGUAA | -3.52 ± 0.29 | -1.5 ± 0.16 |
| AUAAAGCAAUAUUACGACCA | -0.122 ± 0.09 | 0.00323 ± 0.12 |
| UGGAAGCAAUAUUACGCUCU | – | -1.45 ± 0.32 |
| AAAUAGCAAUAUUACGAGAG | -4.01 ± 0.3 | -2.49 ± 0.28 |
| CGCAAGCAAUAUUACGUUUG | -4.31 ± 0.26 | -2.8 ± 0.24 |
| GCCCAGCAAUAUUACGAGCU | -3.47 ± 0.19 | -1.89 ± 0.15 |
| CCAAAGCAAUAUUACGCGUC | -3.17 ± 0.21 | -2.98 ± 0.34 |
| AGAAAGCAAUAUUACGUGCU | -0.713 ± 0.063 | -1.28 ± 0.092 |
| UUCUAGCAAUAUUACGCCCA | -1.55 ± 0.16 | -1.37 ± 0.14 |
| UCCUAGCAAUAUUACGUCGA | -0.0892 ± 0.07 | 0.0864 ± 0.078 |
| CAAAAGCAAUAUUACGGGCC | -3.65 ± 0.27 | -2.28 ± 0.28 |
| ACGCAGCAAUAUUACGGAUG | -3.06 ± 0.15 | -1.67 ± 0.14 |
| AUUAAGCAAUAUUACGGUUC | -3.04 ± 0.35 | -0.609 ± 0.31 |
| ACACAGCAAUAUUACGAUUA | -1.66 ± 0.087 | -0.929 ± 0.07 |
| UAGGAGCAAUAUUACGUCUG | -0.473 ± 0.13 | 0.629 ± 0.15 |
| GCAGAGCAAUAUUACGAGAG | -3 ± 0.47 | -1.95 ± 0.32 |
| UGAAAGCAAUAUUACGGCAA | -0.125 ± 0.078 | 0.497 ± 0.1 |

Source: the supplement of paper PMC7877785
